Measurements as given in publication PMC11203631.

Key:
[1] = molecular target: vault-Z nanoparticle (assembly of major vault protein carrying a C-terminal Z peptide) (human | staphylococcal (protein A-derived)); assay: co-sedimentation; 8 nM vault-Z (624 nM MVP-Z) or authentic vault incubated 1 h with 40 to 320 nM Tz in 12 mM sodium phosphate pH 7.2, 0.14 M NaCl, 2.7 mM KCl; pelleted at 100,000 x g, 2 h, 4 °C; pellets quantified by SDS-PAGE densitometry and LC/MS; apparent KD from a quadratic binding equation
[2] = molecular target: Trastuzumab; assay: SPR; same sensorgrams of Z peptide on immobilised Tz, fitted with the affinity model (Req against Z peptide concentration)
[3] = molecular target: Trastuzumab; assay: SPR; Biacore X100; Tz amine-coupled to a CM3 chip at 1220 RU; authentic vault, vault-Z or peptide Z injected 3 min at 30 uL/min, 25 °C, in 10 mM HEPES pH 7.4, 0.15 M NaCl, 3 mM EDTA, 0.05% Surfactant P20; Langmuir 1:1 kinetic fit

Row | Substance | Tz bound per vault-Z at 160 nM Tz (Tz per vault-Z) [1] | stoichiometry N (Tz per vault-Z) [1] | Kd [2] | Kd [3] | koff [3] | kon [3]
1 | Trastuzumab (antibody) | 14 | > 10 | – | – | – | –
2 | Z peptide in isolation | – | – | 56 nM | 38.3 nM | 0.0171 s⁻¹ | 446000 M⁻¹ s⁻¹
3 | vault-Z nanoparticle (assembly of major vault protein carrying a C-terminal Z peptide) (complex) | – | – | – | 2.53 nM | 0.000259 s⁻¹ | 105000 M⁻¹ s⁻¹
